Drawing on paper PMC3025356, “Mechanism of the Ca^2+-Dependent Interaction between S100A4 and Tail Fragments of Nonmuscle Myosin Heavy Chain IIA” (Journal of Molecular Biology, 2011), this text covers Kd, koff and kon for two substances.

Assay [1] deals with S100A4 (wild type, full-length) (UniProt P26447). Put plainly: fluorescence polarisation; competition: displacement of F-M16^N (5 μM) from S100A4 (5 μM) by increasing M32 or M16^N, with Ca2+; fit to a competitive single-site model with Kd of F-M16^N fixed at 2 μM.
Assay [2] has the same target. Description: fluorescence polarisation; as a1 but without Ca2+: EGTA added to 1 mM at the end of the titration. A general note: Polarisation of emitted light reports the rotation of a fluorescent probe.
Assay [3] has the same target. Description: stopped-flow fluorescence; 0.1 μM F-M16^N mixed with S100A4, fluorescein emission intensity, with Ca2+; kobs against [S100A4]; dissociation also by displacement with excess M32.
Assay [4] has the same target. The assay is described as above. The source holds these as a separate data set.
Assay [5] shares this target. Put plainly: fluorescence polarisation; fluorescein anisotropy; 0.1 μM F-M16^N titrated with S100A4; 20 mM NaCl, 10 mM Hepes, 1 mM Mg2+, 100 μM Ca2+, pH 7.5, 20 °C; apparent; 1:1 binding per S100A4 monomer assumed.
For assay [6] the target is unchanged. Put plainly: fluorescence polarisation + other: stopped-flow fluorescence; K2 with Ca2+: anisotropy value corrected for the 35% quench of fluorescein, identical with k-2/k2 of the stopped-flow records; per S100A4 monomer.

Where two headings read alike, the source gives them in different places.

S100A4 (wild type, full-length), sequence (P26447 whole entry): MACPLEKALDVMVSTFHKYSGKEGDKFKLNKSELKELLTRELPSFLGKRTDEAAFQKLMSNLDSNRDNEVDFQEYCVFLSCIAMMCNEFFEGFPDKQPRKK

Regarding “M16^N myosin peptide (NM-MHC IIA D1908-R1923) (from UniProt P35579-1 1908-1923)”, in assay [1], the Kd was greater than 100000 nM.
For “F-M16^N, fluorescein-labelled M16^N myosin peptide (NM-MHC IIA D1908-R1923) (from UniProt P35579-1 1908-1923)”, the Kd in assay [2] is greater than 300000 nM; in assay [5], 2000 nM; in assay [6], 1300 nM. For the same substance, the figures for the koff in assay [3] and in assay [4] were 6.2 s⁻¹ and 7.7 s⁻¹, respectively. The on-rate constant (kon) in assay [3] is 4.9e+06 M⁻¹ s⁻¹.

Usually koff stands for the rate constant with which the complex falls apart. A higher koff goes with fast dissociation. By kon is commonly meant a measure of how fast the partners come together. The low end stands for slower complex formation, the high end for faster complex formation.
